Target: inactive C105A human m-calpain heterodimer (C105A large subunit with truncated small subunit) (human, UniProt P17655 20-700; P04632 1-268, C105A, Ca2+-bound during hCSD1 binding. C-terminal His tag of the large subunit omitted. The ΔG2 small-subunit limits are not printed (they are in the cited Hata 2012 paper); the 184-residue small subunit of)
Test: BLI; GST-immobilized hCSD1; purified C105A-calpain from the affinity method in solution
Conditions: both partners purified

B1: N-terminal glutathione S-transferase-tagged human calpastatin domain 1 (domain or fragment, UniProt P20810 137-277, looked up)
chain: AVPVESKPDKPSGKSGMDAALDDLIDTLGGPEETEEENTTYTGPEVSDPMSSTYIEELGKREVTIPPKYRELLAKKEGITGPPADSSKPIGPDDAIDALSSDFTCGSPTAAGKKTEKEESTEVLKAQSAGTVRSAAPPQEK
notes: synthetic gene in pGEX-4T-1; GST is fused N-terminally through a linker; the tag can be removed by thrombin; also called GST-hCSD1; GST-tagged hCSD1; source: E. coli BL21(DE3), purified (GSTrap FF); not shown: GST, N-terminal, kept
With B1 the Kd was 1.7 nM.

From paper PMC5358782, “Affinity purification of human m-calpain through an intrinsically disordered inhibitor, calpastatin” (PLoS ONE, 2017)
